Data as given in article PMC2806608.
pKd: −log10 of the molar value.

Target: human FcμR on BW5147 T cell transductants (human) (UniProt O60667)
Assay: radioligand binding

Sequence of UniProt O60667 (O60667 17-390): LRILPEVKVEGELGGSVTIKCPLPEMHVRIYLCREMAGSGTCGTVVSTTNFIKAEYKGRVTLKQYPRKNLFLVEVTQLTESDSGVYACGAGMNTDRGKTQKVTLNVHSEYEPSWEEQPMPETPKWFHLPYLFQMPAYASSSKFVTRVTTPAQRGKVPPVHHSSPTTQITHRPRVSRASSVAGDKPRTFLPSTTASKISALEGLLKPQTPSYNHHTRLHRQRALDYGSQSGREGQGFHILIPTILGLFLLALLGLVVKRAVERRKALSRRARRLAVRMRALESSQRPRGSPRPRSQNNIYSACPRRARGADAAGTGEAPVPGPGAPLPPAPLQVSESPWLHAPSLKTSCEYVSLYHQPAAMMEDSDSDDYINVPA

^125I-labeled human IgM myeloma protein (antibody)
pKd: 7.97
